Laboratory results as given in US20040043420A1, “Method of identifying conformation-sensitive binding peptides and uses thereof” (priority 2003, published 2004).

Columns and labels:
ER α [1] = target: T1, ER α (UniProt P03372 1-595, limits assumed); assay: phage ELISA, ICI 182,780 1 µM
T1 construct: also called estrogen receptor α; ERα-ERE
T1 sequence (looked up): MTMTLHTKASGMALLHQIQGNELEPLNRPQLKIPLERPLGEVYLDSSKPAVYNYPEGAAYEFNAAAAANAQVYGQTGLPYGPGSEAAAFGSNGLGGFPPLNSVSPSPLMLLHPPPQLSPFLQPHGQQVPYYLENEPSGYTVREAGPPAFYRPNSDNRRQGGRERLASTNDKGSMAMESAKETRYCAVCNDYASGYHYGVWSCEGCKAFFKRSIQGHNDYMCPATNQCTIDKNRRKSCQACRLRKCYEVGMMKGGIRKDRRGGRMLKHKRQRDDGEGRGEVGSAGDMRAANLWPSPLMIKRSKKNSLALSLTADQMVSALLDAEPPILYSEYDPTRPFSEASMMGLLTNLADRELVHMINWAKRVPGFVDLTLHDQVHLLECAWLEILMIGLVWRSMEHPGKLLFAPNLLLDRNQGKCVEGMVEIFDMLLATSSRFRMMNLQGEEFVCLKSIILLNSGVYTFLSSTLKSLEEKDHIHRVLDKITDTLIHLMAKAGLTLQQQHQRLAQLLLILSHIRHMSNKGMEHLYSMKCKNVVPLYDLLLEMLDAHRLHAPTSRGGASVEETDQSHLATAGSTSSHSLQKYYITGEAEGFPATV

ER α [2] = target: T1, ER α; assay: peptide probe binding to ERα, Buffer
ER α [3] = target: T1, ER α; assay: peptide probe binding to ERα, GW7604
ER β [4] = target: T2, ER β (UniProt Q92731 1-530, limits assumed); assay: peptide probe binding to ERβ, Estriol
T2 construct: In vitro; also called estrogen receptor β; ERβ-ERE

ER α [5] = target: T1, ER α; assay: peptide probe binding to ERα, Raloxifene
ER α [6] = target: T1, ER α; assay: peptide probe binding to ERα, ICI 182,780
ER α [7] = target: T1, ER α; assay: peptide probe binding to ERα, 4-OH Tamoxifen
ER α [8] = target: T1, ER α; assay: peptide probe binding to ERα, Diethylstilbesterol
ER β [9] = target: T2, ER β; assay: phage ELISA, ICI 182,780 1 µM
ER β [10] = target: T2, ER β; assay: peptide probe binding to ERβ, Buffer
ER α [11] = target: T1, ER α; assay: peptide probe binding to ERα, Estriol
ER β [12] = target: T2, ER β; assay: peptide probe binding to ERβ, GW 7604
ER α [13] = target: T1, ER α; assay: peptide probe binding to ERα, Nafoxidine
ER β [14] = target: T2, ER β; assay: peptide probe binding to ERβ, Clomiphene
ER β [15] = target: T2, ER β; assay: peptide probe binding to ERβ, Nafoxidine
ER β [16] = target: T2, ER β; assay: peptide probe binding to ERβ, Raloxifene
ER β [17] = target: T2, ER β; assay: peptide probe binding to ERβ, ICI 182,780
ER α [18] = target: T1, ER α; assay: peptide probe binding to ERα, 17α-Estradiol
ER α [19] = target: T1, ER α; assay: peptide probe binding to ERα, 17β-Estradiol
ER β [20] = target: T2, ER β; assay: peptide probe binding to ERβ, 17α-Estradiol
ER β [21] = target: T2, ER β; assay: peptide probe binding to ERβ, 17β-Estradiol
ER β [22] = target: T2, ER β; assay: peptide probe binding to ERβ, 4-OH Tamoxifen
ER β [23] = target: T2, ER β; assay: peptide probe binding to ERβ, Diethylstilbesterol
ER β, Q92731 [24] = target: T3, ER β, Q92731; assay: peptide probe binding to ERβ, all modulators
T3 chain: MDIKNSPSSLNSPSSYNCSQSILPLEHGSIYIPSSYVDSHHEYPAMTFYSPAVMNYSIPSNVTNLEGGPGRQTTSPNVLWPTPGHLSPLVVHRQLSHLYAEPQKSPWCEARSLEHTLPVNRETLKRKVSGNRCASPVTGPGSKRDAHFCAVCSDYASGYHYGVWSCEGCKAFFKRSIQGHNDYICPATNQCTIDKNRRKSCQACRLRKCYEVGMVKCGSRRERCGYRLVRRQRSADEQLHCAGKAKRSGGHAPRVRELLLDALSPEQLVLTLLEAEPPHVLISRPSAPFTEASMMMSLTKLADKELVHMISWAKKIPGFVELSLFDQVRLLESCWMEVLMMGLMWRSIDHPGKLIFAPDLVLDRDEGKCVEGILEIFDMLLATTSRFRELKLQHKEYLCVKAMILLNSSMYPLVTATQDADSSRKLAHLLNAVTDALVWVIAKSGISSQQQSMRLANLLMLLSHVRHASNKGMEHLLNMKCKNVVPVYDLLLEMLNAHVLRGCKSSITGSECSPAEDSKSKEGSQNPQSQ

ER β, Q92731 [25] = target: T3, ER β, Q92731; assay: phage ELISA, raloxifene 1 µM
ER β, Q92731 [26] = target: T3, ER β, Q92731; assay: phage ELISA, ICI 182,780 1 µM
ER β, Q92731 [27] = target: T3, ER β, Q92731; assay: phage ELISA, clomiphene 10 µM
ER β, Q92731 [28] = target: T3, ER β, Q92731; assay: phage ELISA, 4-OH tamoxifen 1 µM
ER α, P03372 [29] = target: T4, ER α, P03372; assay: peptide probe binding to ERα, Buffer
T4 chain: T1 sequence (looked up)

ER α, P03372 [30] = target: T4, ER α, P03372; assay: peptide probe binding to ERα, GW7604
ER β, Q92731 [31] = target: T3, ER β, Q92731; assay: peptide probe binding to ERβ, Buffer
ER α, P03372 [32] = target: T4, ER α, P03372; assay: peptide probe binding to ERα, Estriol
ER β, Q92731 [33] = target: T3, ER β, Q92731; assay: peptide probe binding to ERβ, Estriol
ER β, Q92731 [34] = target: T3, ER β, Q92731; assay: peptide probe binding to ERβ, GW 7604
ER α, P03372 [35] = target: T4, ER α, P03372; assay: peptide probe binding to ERα, Clomiphene
ER α, P03372 [36] = target: T4, ER α, P03372; assay: peptide probe binding to ERα, Nafoxidine
ER α, P03372 [37] = target: T4, ER α, P03372; assay: peptide probe binding to ERα, Raloxifene
ER α, P03372 [38] = target: T4, ER α, P03372; assay: peptide probe binding to ERα, ICI 182,780
ER α, P03372 [39] = target: T4, ER α, P03372; assay: peptide probe binding to ERα, 17α-Estradiol
ER α, P03372 [40] = target: T4, ER α, P03372; assay: peptide probe binding to ERα, 17β-Estradiol
ER β, Q92731 [41] = target: T3, ER β, Q92731; assay: peptide probe binding to ERβ, 17α-Estradiol
ER β, Q92731 [42] = target: T3, ER β, Q92731; assay: peptide probe binding to ERβ, 17β-Estradiol
ER α, P03372 [43] = target: T4, ER α, P03372; assay: peptide probe binding to ERα, 4-OH Tamoxifen
ER α, P03372 [44] = target: T4, ER α, P03372; assay: peptide probe binding to ERα, Diethylstilbesterol
ER β, Q92731 [45] = target: T3, ER β, Q92731; assay: peptide probe binding to ERβ, Diethylstilbesterol
ER α [46] = target: T1, ER α; assay: affinity of phage class for unliganded ER α

SRLPPSVFSMCGSEVCLSR (also called 9T-β; 9Tβ) [T1-10]
phage ELISA grade (ER α [1]): 0 | Equiv. (ER α [2]): 0% | Equiv. (ER α [3]): 0% | Equiv. (ER β [4]): -75% | Equiv. (ER α [5]): 0% | Equiv. (ER α [6]): -100% | Equiv. (ER α [7]): 100% | Equiv. (ER α [8]): 0%

SSPGSREWFKDMLSR (also called α/β V; AB5) [14T-β]
phage ELISA grade (ER β [9]): 0 | Equiv. (ER α [2]): 0% | Equiv. (ER α [3]): 0% | Equiv. (ER β [10]): 0% | Equiv. (ER α [11]): 0% | Equiv. (ER β [4]): 0% | Equiv. (ER β [12]): 0% | Equiv. (ER α [13]): 0% | Equiv. (ER α [5]): 0% | Equiv. (ER β [14]): 13% | Equiv. (ER β [15]): 0% | Equiv. (ER β [16]): 0% | Equiv. (ER α [6]): 0% | Equiv. (ER β [17]): 0% | Equiv. (ER α [18]): 0% | Equiv. (ER α [19]): 0% | Equiv. (ER β [20]): 0% | Equiv. (ER β [21]): 0% | Equiv. (ER α [7]): 100% | Equiv. (ER β [22]): 100% | Equiv. (ER α [8]): 0% | Equiv. (ER β [23]): 0%

SAPRATISHYLMGG (modifications not checked) [α/β II]
Equiv. (ER β, Q92731 [24]): 0%

SSNHQSSRLIELLSR (modifications not checked) [phage 4 (Table 2)]
phage ELISA grade (ER β, Q92731 [25]): 0 | phage ELISA grade (ER β, Q92731 [26]): 0 | phage ELISA grade (ER β, Q92731 [27]): 0 | phage ELISA grade (ER β, Q92731 [28]): 0 | Equiv. (ER α, P03372 [29]): 0% | Equiv. (ER α, P03372 [30]): 0% | Equiv. (ER β, Q92731 [31]): 0% | Equiv. (ER α, P03372 [32]): 65% | Equiv. (ER β, Q92731 [33]): 81% | Equiv. (ER β, Q92731 [34]): 0% | Equiv. (ER α, P03372 [35]): 0% | Equiv. (ER α, P03372 [36]): 0% | Equiv. (ER α, P03372 [37]): 0% | Equiv. (ER α, P03372 [38]): 0% | Equiv. (ER α, P03372 [39]): 53% | Equiv. (ER α, P03372 [40]): 100% | Equiv. (ER β, Q92731 [41]): 44% | Equiv. (ER β, Q92731 [42]): 100% | Equiv. (ER α, P03372 [43]): 0% | Equiv. (ER α, P03372 [44]): 71% | Equiv. (ER β, Q92731 [45]): 68%

HGPLTLNLLRSSGG [#41 ER + estradiol (Table 3)]
binding result (ER α [46]): binds
